Laboratory results reported in patent US20120201781A1 (AbbVie / Abbott, published 2012).

T1: recombinant human IL-1α (human, UniProt P01583 113-271)
T1 construct: Purified recombinant protein bought from R&D Systems; also called hIL-1α; rhIL-1α
T1 sequence: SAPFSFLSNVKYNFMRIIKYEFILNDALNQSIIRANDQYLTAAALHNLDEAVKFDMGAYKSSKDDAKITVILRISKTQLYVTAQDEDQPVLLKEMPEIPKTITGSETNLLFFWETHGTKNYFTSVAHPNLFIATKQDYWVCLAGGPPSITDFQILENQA


Key:
recombinant human IL-1β [1] = target: T2, recombinant human IL-1β (human, UniProt P01584 117-269); assay: SPR (Biacore), mAb captured via goat anti-mouse IgG
T2 construct: Recombinant protein; also called hIL-1β; rhIL-1β

recombinant human IL-1β [2] = target: T2, recombinant human IL-1β; assay: cell-based or functional assay
recombinant human IL-1β [3] = target: T2, recombinant human IL-1β; assay: SPR (Biacore), saturating binding
recombinant human IL-1β [4] = target: T2, recombinant human IL-1β; assay: cell-based or functional assay; remark: listed apart in the source
recombinant human IL-1β [5] = target: T2, recombinant human IL-1β; assay: SPR (Biacore)
recombinant human IL-1α [6] = target: T1, recombinant human IL-1α; assay: SPR (Biacore), mAb captured via goat anti-mouse IgG
recombinant human IL-1α [7] = target: T1, recombinant human IL-1α; assay: cell-based or functional assay
recombinant human IL-1α [8] = target: T1, recombinant human IL-1α; assay: SPR (Biacore), saturating binding
recombinant human IL-1α [9] = target: T1, recombinant human IL-1α; assay: cell-based or functional assay; remark: listed apart in the source
recombinant human IL-1α [10] = target: T1, recombinant human IL-1α; assay: SPR (Biacore)
recombinant human IL-1β [11] = target: T2, recombinant human IL-1β; assay: SPR (Biacore), hIL-1β as 1st antigen
Description: (§1) In addition, tetravalent dual-specific antigen binding of DVD-Ig binding protein was also analyzed by Biacore (Table 14). DVD-Ig binding protein was first captured via a goat anti-human Fc antibody on the Biacore sensor chip, and the first antigen was injected and a binding signal observed. As the DVD-Ig binding protein was saturated by the first antigen, the second antigen was then injected and the second signal observed. This was done either by first injecting IL-1β then IL-1α or by first injecting IL-1α followed by IL-1β for DVD2-Ig binding protein. In either sequence, a dual-binding activity was detected. Similar results were obtained for DVD1-Ig binding protein. Thus, each DVD-Ig binding protein was able to bind both antigens simultaneously as a dual-specific tetravalent molecule. […] Upon the injection of the second antigen, while DVD-Ig binding protein was already occupied by the first antigen, the stoichiometry of both DVD-Igs binding protein to the second antigen (i.e., hIL-1α or hIL-1β was between 1.0 and 1.3. Thus, DVD-Ig binding protein was able to bind two IL-1α and two IL-β molecules. DVD-Ig binding protein was first captured via a goat anti-human Fc antibody on the Biacore sensor chip, and the first antigen was injected and a binding signal observed, followed by the injection of the second antigen.

recombinant human IL-1β [12] = target: T2, recombinant human IL-1β; assay: SPR (Biacore 3000), saturating binding
Description: (§2) The association and dissociation rate constants, kon (M-1s-1) and koff (s-1) were determined under a continuous flow rate of 25 ml/minute. […] The equilibrium dissociation constant (M) of the reaction between DVD-Ig molecule and rhIL1α/β was then calculated from the kinetic rate constants by the following formula: KD=koff/kon. Aliquots of rhIL1α/β samples were also simultaneously injected over a blank reference and reaction CM surface to record and subtract any nonspecific binding background to eliminate the majority of the refractive index change and injection noise. Surfaces were regenerated with two subsequent […] injections of 10 mM Glycine (pH 1.5) at a flow rate of […]. The anti-Fc antibody immobilized surfaces were completely regenerated and retained their full capture capacity over twelve cycles. The apparent stoichiometry of the captured DVD-Ig-rhIL1α/β complex was calculated under saturating binding conditions (steady-state equilibrium) using the following formula: […]
(§3) The affinity of the two DVD-Ig binding proteins to hIL-1 as compared to the affinity of chimeric antibodies to hIL-1 was similar as indicated by the evaluation of the stoichiometry to IL-1. Both chimeric antibodies, being bivalent monospecific, bound to IL-1α and IL-1β on Biacore with a stoichiometry of 1.6 and 1.7, respectively. This is common for an IgG due to inter-molecular interference when antibodies are immobilized densely on the Biacore sense chip resulting in stoichiometry being in the range from 1.5 to 2.0.

recombinant human IL-1α [13] = target: T1, recombinant human IL-1α; assay: SPR (Biacore 3000), saturating binding
Description: as §2, §3

recombinant human IL-1α [14] = target: T1, recombinant human IL-1α; assay: SPR (Biacore), hIL-1α as 2nd antigen after hIL-1β
Description: as §1

recombinant human IL-1α [15] = target: T1, recombinant human IL-1α; assay: SPR (Biacore), hIL-1α as 1st antigen
Description: as §1

recombinant human IL-1α [16] = target: T1, recombinant human IL-1α; assay: SPR (Biacore); remark: listed apart in the source
Description: (§4) The equilibrium dissociation constant (M) of the reaction between DVD-Ig molecule and rhIL1α/β was then calculated from the kinetic rate constants by the following formula: KD=koff/kon. Aliquots of rhIL1α/β samples were also simultaneously injected over a blank reference and reaction CM surface to record and subtract any nonspecific binding background to eliminate the majority of the refractive index change and injection noise. Surfaces were regenerated with two subsequent […] injections of 10 mM Glycine (pH 1.5) at a flow rate of […]. The anti-Fc antibody immobilized surfaces were completely regenerated and retained their full capture capacity over twelve cycles. The apparent stoichiometry of the captured DVD-Ig-rhIL1α/β complex was calculated under saturating binding conditions (steady-state equilibrium) using the following formula: […]
as §3

recombinant human IL-1α [17] = target: T1, recombinant human IL-1α; assay: cell-based or functional assay; remark: listed apart in the source
recombinant human IL-1β [18] = target: T2, recombinant human IL-1β; assay: SPR (Biacore), hIL-1β as 2nd antigen after hIL-1α
Description: as §1

recombinant human IL-1β [19] = target: T2, recombinant human IL-1β; assay: SPR (Biacore 3000), binder captured via goat anti-human IgG Fc
Description: (§5) Approximately, 5000 RU of goat anti-human IgG Fcγ fragment specific polyclonal antibody (Pierce Biotechnology Inc, Rockford, Ill.) diluted in 10 mM sodium acetate (pH 4.5) was directly immobilized across a CM5 research grade biosensor chip using a standard amine coupling kit according to manufacturer's instructions and procedures at […]. Unreacted moieties on the biosensor surface were blocked with ethanolamine. Modified carboxymethyl dextran surface in flowcell 2 and 4 was used as a reaction surface. Unmodified carboxymethyl dextran without goat anti-human IgG in flow cell 1 and 3 was used as the reference surface. For kinetic analysis, rate equations derived from the 1:1 Langmuir binding model were fitted simultaneously to association and dissociation phases of all ten injections (using global fit analysis) using the Bioevaluation 4.0.1 software. Purified DVD-Ig samples were diluted in HEPES-buffered saline for capture across goat anti-human IgG Fc specific reaction surfaces and injected over reaction matrices at a flow rate of […]. The association and dissociation rate constants, kon (M-1s-1) and koff (s-1) were determined under a continuous flow rate of 25 ml/minute. […] The equilibrium dissociation constant (M) of the reaction between DVD-Ig molecule and rhIL1α/β was then calculated from the kinetic rate constants by the following formula: KD=koff/kon. Aliquots of rhIL1α/β samples were also simultaneously injected over a blank reference and reaction CM surface to record and subtract any nonspecific binding background to eliminate the majority of the refractive index change and injection noise. Surfaces were regenerated with two subsequent […] injections of 10 mM Glycine (pH 1.5) at a flow rate of […]. The anti-Fc antibody immobilized surfaces were completely regenerated and retained their full capture capacity over twelve cycles. The apparent stoichiometry of the captured DVD-Ig-rhIL1α/β complex was calculated under saturating binding conditions (steady-state equilibrium) using the following formula: […]

recombinant human IL-1α [20] = target: T1, recombinant human IL-1α; assay: as above
Description: as §5

recombinant human IL-1β [21] = target: T2, recombinant human IL-1β; assay: SPR (Biacore); remark: listed apart in the source
Description: as §4, §3

recombinant human IL-1β [22] = target: T2, recombinant human IL-1β; assay: cell-based or functional assay; remark: listed apart in the source

Binder	Potency (IC50) M, MRC-5 bioassay (recombinant human IL-1β [2]) [nM]	Potency (IC50) M, MRC-5 bioassay (recombinant human IL-1α [7]) [nM]	Stoichiometry hIL-1β:DVD-Ig (recombinant human IL-1β [11])	Stoichiometry (recombinant human IL-1β [12])	Stoichiometry (recombinant human IL-1α [13])	Stoichiometry hIL-1α:DVD-Ig (recombinant human IL-1α [14])	Stoichiometry hIL-1α:DVD-Ig (recombinant human IL-1α [15])	fold lower affinity than the chimeric 3D12.E3 antibody (recombinant human IL-1α [16]) [fold]	neutralizing activity in MRC-5 bioassay, fold less than the chimeric antibodies (recombinant human IL-1α [17]) [fold]	Stoichiometry hIL-1β:DVD-Ig (recombinant human IL-1β [18])	Kd (recombinant human IL-1β [19]) [nM]	koff (recombinant human IL-1β [19]) [s⁻¹]	kon (recombinant human IL-1β [19]) [M⁻¹ s⁻¹]	Kd (recombinant human IL-1α [20]) [nM]	koff (recombinant human IL-1α [20]) [s⁻¹]	kon (recombinant human IL-1α [20]) [M⁻¹ s⁻¹]	further results
murine monoclonal antibody 13F5.G5 (antibody, V domains shown, Murine hybridoma mAb, anti-hIL-1β) VH: QVQLQQSGAELVRPGSSVKISCKASGYAFSSYWMNWVKQRPGQGLEWIGQIYPGDGDTNYNGKFKGKATLTADKSSSTSYMQLSGLTSEDSAMYFCVRFPTGNDYYAMDYWGQGTSVTVSS VL: NIVLTQSPASLAVSLGQRATISCRASESVDSYGNSYMHWYQQKPGQPPKLLIYLASNLESGVPARFSGSGSRTDFTLTIDPVEADDAATYYCQQNNEDPFTFGSGTKLEIKR	0.6	–	–	–	–	–	–	–	–	–	–	–	–	–	–	–	Kd (recombinant human IL-1β [1]): 0.291 nM; Stoichiometry (recombinant human IL-1β [3]): 1.8; IC50 (M), MRC-5 bioassay (inhibition of IL-8 production) (recombinant human IL-1β [4]): 6e-10 M; Kd (recombinant human IL-1β [5]): 0.291 nM; koff (recombinant human IL-1β [5]): 0.000621 s⁻¹; kon (recombinant human IL-1β [5]): 2.13e+06 M⁻¹ s⁻¹
murine monoclonal antibody 3D12.E3 (antibody, V domains shown, Murine hybridoma mAb, anti-hIL-1α) VH: QIQLVQSGPELKKPGETVKISCKASGYTFRNYGMNWVKQAPGKDLKRMAWINTYTGESTYADDFKGRFAFSLETSASTAYLQINNLKNEDTATYFCARGIYYYGSSYAMDYWGQGTSVTVSS VL: NIQMTQTTSSLSASLGDRVTISCRASQDISNCLNWYQQKPDGTVKLLIYYTSRLHSGVPSRFSGSGSGTDYSLTISNLEQEDIATYFCQQGKTLPYAFGGGTKLEINR	–	0.67	–	–	–	–	–	–	–	–	–	–	–	–	–	–	Kd (recombinant human IL-1α [6]): 1.11 nM; Stoichiometry (recombinant human IL-1α [8]): 2; IC50 (M), MRC-5 bioassay (inhibition of IL-8 production) (recombinant human IL-1α [9]): 6.7e-10 M; Kd (recombinant human IL-1α [10]): 1.11 nM; koff (recombinant human IL-1α [10]): 0.000713 s⁻¹; kon (recombinant human IL-1α [10]): 643000 M⁻¹ s⁻¹
hIL-1α/β DVD1-Ig binding protein (bispecific antibody, human IgG1, kappa, 13F5.G5 variable domains fused directly (no linker) to the N-terminus of 3D12.E3 variable domains, human Cγ1/Cκ) heavy: not shown light: NIVLTQSPASLAVSLGQRATISCRASESVDSYGNSYMHWYQQKPGQPPKLLIYLASNLESGVPARFSGSGSRTDFTLTIDPVEADDAATYYCQQNNEDPFTFGSGTKLEIKRNIQMTQTTSSLSASLGDRVTISCRASQDISNCLNWYQQKPDGTVKLLIYYTSRLHSGVPSRFSGSGSGTDYSLTISNLEQEDIATYFCQQGKTLPYAFGGGTKLEINRRTVAAPSVFIFPPSDEQLKSGTASVVCLLNNFYPREAKVQWKVDNALQSGNSQESVTEQDSKDSTYSLSSTLTLSKADYEKHKVYACEVTHQGLSSPVTKSFNRGEC	3.1	2.3	1.5	1.5	1.8	1.1	2.3	2 to 3	3	1	2.6	0.00159	609000	2.83	0.000105	37000	–
hIL-1α/β DVD2-Ig binding protein (bispecific antibody, human IgG1, kappa, 13F5.G5 V - linker (heavy AKTTPP, light ADAAP) - 3D12.E3 V, human Cγ1/Cκ) heavy: not shown light: NIVLTQSPASLAVSLGQRATISCRASESVDSYGNSYMHWYQQKPGQPPKLLIYLASNLESGVPARFSGSGSRTDFTLTIDPVEADDAATYYCQQNNEDPFTFGSGTKLEIKRADAAPNIQMTQTTSSLSASLGDRVTISCRASQDISNCLNWYQQKPDGTVKLLIYYTSRLHSGVPSRFSGSGSGTDYSLTISNLEQEDIATYFCQQGKTLPYAFGGGTKLEINRTVAAPSVFIFPPSDEQLKSGTASVVCLLNNFYPREAKVQWKVDNALQSGNSQESVTEQDSKDSTYSLSSTLTLSKADYEKHKVYACEVTHQGLSSPVTKSFNRGEC	1.6	2.9	1.6	1.8	2	1.2	1.8	3	3	1.3	0.798	0.00095	1.19e+06	3.42	0.000252	73500	fold higher affinity than DVD1-Ig binding protein (recombinant human IL-1β [21]): 3 fold; neutralizing activity in MRC-5 bioassay, fold higher than DVD1-Ig (recombinant human IL-1β [22]): 3 fold
